Test results as given in paper PMC8304084, “A Concerted Action of UBA5 C-Terminal Unstructured Regions Is Important for Transfer of Activated UFM1 to UFC1” (International Journal of Molecular Sciences, 2021).
Read-outs that look alike come from different tables or passages of the source.

Legend:
UFC1 [1] = target: T1, UFC1 (Homo sapiens, UniProt Q9Y3C8); assay: ITC, UBA5 constructs vs UFC1; assay type: binding; settings: for N: ITC stoichiometry; for N / ΔG / ΔS / −T*ΔS / KA*10^−6 / Kd: UFC1 titrated to full length UBA5; for N / ΔH / KA*10^−6: ± = fitting error; for ΔG / ΔS / −T*ΔS / ΔH / KA*10^−6 / Kd: ITC, 25 °C; for ΔH: UFC1 titrated to full length UBA5 (FL^1–404 or FL^1–404 C250K~UFM1), single profile; for ΔH / Kd: 25 mM HEPES pH 7.5, 100 mM NaCl; for KA*10^−6: value is KA × 10^−6; for Kd: VP-ITC, one-site model, single ITC profile
T1 construct: Full length UFC1, residues 1–167; modified ubiquitin tag (Ub19) with TEV site (N, cleaved yes); made in house; host or cells: E. coli T7 Express
T1 sequence (Q9Y3C8 1-167): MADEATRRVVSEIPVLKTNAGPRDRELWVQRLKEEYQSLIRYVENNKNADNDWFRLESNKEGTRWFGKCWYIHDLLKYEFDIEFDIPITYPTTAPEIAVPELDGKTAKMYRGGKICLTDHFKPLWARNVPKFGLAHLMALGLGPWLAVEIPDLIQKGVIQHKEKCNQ
Excerpt: To understand how the UBA5 C-terminus participates in the ufmylation cascade, we performed isothermal titration calorimetry (ITC) experiments, in which we titrated UBA5 C-terminal peptides (see Table 1) to the UBA5 AD, UFC1, UFM1 and representative LC3/GABARAP proteins (Figure 2A, Supplementary Figure S2A–D and Table 2).
To investigate if conjugation of UFM1 to the UBA5 catalytic cysteine (C250) affects the UFC1:UBA5 interactions, we prepared full length UBA5 C250K mutant and stably conjugated UFM1 to it as reported before for a number of ubiquitin-specific E2 enzymes. We compared the UFC1 spectra after addition of a twofold molar excess of FL^1–404 and FL^1–404 C250K~UFM1 constructs (Supplementary Figure S5C).
All proteins and peptides were expressed in E.Coli T7 Express (New England Biolabs GmbH, Frankfurt, Germany) cells in LB or M9 (to obtain ^15N- and ^13C,^15N-labeled polypeptides) media according to the protocol described in [33, 36]. For protein purification, bacterial cell pellets were resuspended in lysis buffer (50 mM Tris-HCl pH = 7.5, 100 mM NaCl, 5% glycerol, 5 mM PIC (protease inhibitor cocktail)) and lysed via sonication (TT13 Sonotrode, 40% amplitude, for 6 × 1 min with a 0.5/0.5-s pulse). Lysates were centrifuged for 45 min at 17,000× g at 4 °C. Supernatants were loaded onto a His Trap Fast Flow 5 mL column (GE Healthcare, München, Germany) equilibrated in loading buffer (50 mM Tris-HCl pH = 8.0, 250 mM NaCl, 1% glycerol, 20 mM imidazole). The column was washed with loading buffer for 5–10 CV and protein was eluted with elution buffer (50 mM Tris-HCl pH = 8, 250 mM NaCl, 1% glycerol, 400 mM imidazole). Simultaneous TEV cleavage (1 mg TEV protease was added to 100 mg peptides/proteins) and buffer exchange to loading buffer via dialysis was performed over night at 4 °C. After reverse IMAC, proteins were concentrated with conical concentrators (Millipore Merck, Darmstadt, Germany) and loaded on a Superdex 10/60 75 or 200 column (GE Healthcare, München, Germany) for further purification and equilibration with ITC/NMR buffer (25 mM HEPES pH = 7.5, 100 mM NaCl). For structural NMR spectroscopy, buffer containing 50 mM Tris-HCl pH = 7.5, 100 mM NaCl was used. Prior to NMR experiments, TCEP and protease inhibitors cocktail were added to the samples to final concentrations 1 and 5 mM, respectively. Purified peptides and protein were concentrated and stored at −80 °C. The protein and peptide concentrations were calculated from the UV absorption at 280 nm by Nanodrop spectrophotometer (Thermo Scientific, Langenselbold, Germany).
All ITC experiments were performed at 25 °C using a VP-ITC microcalorimeter (Malvern Panalytical Ltd., Malvern, UK). Peptides in concentration of ~400 µM were titrated into 20–25 µM solutions of corresponding binding partner at a stirring speed of 307 rpm. The raw data were corrected on the dilution heat of peptides obtained in independent experiment (titration of the peptide in syringe into the ITC/NMR buffer in the measuring cell). Pre-titration delay was set to 180 s, interval between titration steps was experimentally adjusted to avoid kinetic contribution to the observed heat effects and set to 200 s. A single ITC profile was collected for each type of interaction. The ITC data were analyzed based on a “one-site” binding model with MicroCal ITC software implemented in Origin 7.0.

UFM1 = target: T2, UFM1 (Homo sapiens, UniProt P61960); assay: Gel filtration and electrophoresis of UBA5 C250K~UFM1 conjugates with excess UFM1; assay type: binding; settings: gel filtration, Superdex 200 10/300, 4 times molar excess of UFM1, electrophoretic analysis
T2 construct: Full length UFM1, residues 2–83; modified ubiquitin tag (Ub19) with TEV site (N, cleaved yes); made in house; host or cells: E. coli T7 Express
Excerpt: Figure 4 Interaction studies between full length UBA5 and UFC1 proteins. (A) Gel electrophoresis of ufmylation assays including UBA5 FL^1–404 (left plot) and UBA5 ΔR3^1–380. (B) UFC1 binding to full length UBA5 (left plot) and full length stable UBA5~UFM1 conjugate (right plot) observed by ITC experiments. […] KD values are indicated. (C) Gel-filtration profiles of the FL^1–404 C250K~UFM1 conjugates in presence of 4 times molar excess of UFM1 (red lines) and UFC1 (black lines). The peak subjected to electrophoretic analysis is indicated by an asterisk. (D) Scheme of reactions involving UBA5 in the ufmylation cascade. The structures of UBA5 AD (brown), UFM1 (cyan) and UFC1 (grey) are represented as ribbon diagrams; the UBA5 unstructured C-terminus containing regions R1 (orange), R2 (green) and R3 (violet) is shown as dashed lines. The structures were generated from PDB entry 5IAA [29]. * indicates regions of another UBA5 molecule involved in the in trans transfer of UFM1.
For stable UBA5~UFM1 conjugation, 70 µM UFM1, 20 µM FL^1–404 C250K and 1 mM ATP were added to ufmylation reaction buffer (50 mM HEPES […], 100 mM NaCl, 5 mM MgCl2). For NMR analysis, resulting complexes were concentrated and equilibrated with ITC/NMR buffer. To analyze complex formation by ufmylation assay 300 µL of sample were loaded onto a Superdex 200 10/300 column (GE Healthcare, München, Germany).

UFC1 [2] = target: T1, UFC1; assay: NMR titration with UFC1; assay type: binding; settings: [15N,1H] TROSY-HSQC, 25 °C
Method: To understand the role of the UBA5 C-terminal region in coordination of the binding events reported above on the molecular level, we performed NMR titration experiments. […] It seems, that these UBA5 residues form additional interactions with UFC1.
All NMR experiments were performed at a sample temperature of 25 °C on Bruker 600, 700, 800, 900, and 950 MHz spectrometers equipped with cryogenic probes, and a 500 MHz spectrometer equipped with a room-temperature triple-resonance probe. All NMR spectra were analyzed with the Sparky 3.114 software (University of California, San Francisco, USA). For NMR titration experiments, the non-labeled UBA5 peptides were titrated to 100 µM ^13C,^15N-labeled UFC1 to a final molar ratio of 1:8 (UFC1:UBA5 peptide). Conversely, 100 µM ^13C,^15N-labeled UBA5 peptides were titrated with non-labeled UFC1 to a final molar ratio 1:4 (UBA5 peptide:UFC1). 2D ^1H-^15N correlation spectra ([^15N,^1H] TROSY-HSQC) were recorded at each titration point. The same types of spectra were recorded to estimate binding of ^13C,^15N-labeled UFC1 (75 µM) to non-labeled UBA5, UBA5~UFM1 and UFM1 at 1:2 molar ratios. CSP values, Δδ, were calculated for each individual amide group using the formula Δδ = [(ΔδN/5)^2 + Δδ^2HN)]^1/2.

UFC1 [3] = target: T1, UFC1; assay: In vitro thioester formation (ufmylation) assay, UFC1~UFM1 conjugate; assay type: biochemical; settings: within 30 min; 70 µM UFM1, 20 µM UFC1, 20 µM UBA5 construct, 1 mM ATP, 50 mM HEPES pH 7.5, 22 °C; Western blot; triplicates
Method: First, we analyzed the effect of the UBA5 C-terminus on UFM1 transfer to UFC1 with an in vitro thioester formation assay (Figure 1B–E).
Ufmylation reaction assays were adopted from work of Xie. Briefly, 70 µM UFM1, 20 µM UFC1 and 20 µM of different UBA5 constructs were mixed in reaction buffer (50 mM HEPES pH = 7.5, 100 mM NaCl, 5 mM MgCl2). After starting the reaction with addition of 1 mM ATP, the reaction mix was incubated at 22 °C for the desired time. To quench the reaction and prepare electrophoretic samples, 1 µL of the reaction mix was added to 99 µL 1x non-reducing SDS loading buffer and frozen in liquid nitrogen. Sample content was visualized by sodium dodecyl sulfate polyacrylamide gel electrophoresis (SDS-PAGE). The transfer to polyvinylidene difluoride (PVDF) membrane was performed via a Trans-Blot® Turbo™ Transfer System (Bio-Rad, München, Germany). After transfer the membrane was blocked with TBST (Tris-buffered saline with Tween20 buffer, 20 mM Tris, 150 mM NaCl and 0.1% TWEEN 20) containing 5% w/v nonfat dry milk for 1 h, followed by α-UFC1 antibody incubation over night at 4 °C (ab189251 abcam, 1:10,000 in TBST containing 5% w/v nonfat dry milk). After washing with TBST the membrane was incubated with secondary antibody (anti-rabbit-HRP) for 1 h at RT and again washed with TBST. Detection was performed by addition of ECL solution. For quantification of UFC1 ufmylation coloc2 software implemented in ImageJ was used.

UFM1, UFC1 = settings: cited from earlier work
Excerpt: The role of this region is not understood, and no interacting proteins could be identified so far. […] Ufmylation is essential for embryonic development. The A371T mutation was described previously to be present in patients suffering from severe infantile-onset encephalopathy. […] Our ITC experiments with C-terminal UBA5 peptides containing the A371T or its phosphomimicking A371E mutations (loca ...

T2 sequence (P61960 2-83): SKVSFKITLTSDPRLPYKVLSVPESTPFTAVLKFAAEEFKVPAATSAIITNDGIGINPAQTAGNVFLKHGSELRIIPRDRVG

Substance | N (UFC1 [1]) | ΔG (UFC1 [1]) [kcal/mol] | ΔS (UFC1 [1]) [cal mol^−1 K^−1] | −T*ΔS (UFC1 [1]) [kcal/mol] | ΔH (UFC1 [1]) [kcal/mol] | KA*10^−6 (UFC1 [1]) [M^−1] | Kd (UFC1 [1]) [nM] | non-conjugated UFM1 in conjugate peak (UFM1) | interaction with UFC1 (in words) (UFC1 [2]) | UFC1 conjugated to UFM1 (UFC1~UFM1) (UFC1 [3]) | effect of UBA5 A371T mutation on UFM1 activation / transfer (UFM1, UFC1) | effect of UBA5 A371T mutation on UFM1 activation / transfer (UFM1, UFC1; listed as A371T mutation)
FL^1–404 C250K~UFM1: full length UBA5 C250K mutant with UFM1 stably conjugated to it | 1.03 ± 0.009 | -8.10 | −0.34 | 0.10 | -8.21 ± 0.01 | 0.87 ± 0.05 | 1200 | contains non-conjugated UFM1 | no significant enhancement of the UBA5:UFC1 interaction | – | – | –
FL^1–404: Full length UBA5, residues 1–404 | 0.97 ± 0.009 | -8.00 | 1.26 | -0.38 | -7.62 ± 0.01 | 0.72 ± 0.04 | 1400 | – | did not observe significant CSPs (shift or disappearance of the UFC1 resonances) in comparison to the spectra of the UFC1:R3^381–404W complex | ~ 90% | – | –
UBA5 A371T mutant: A371T mutation in the human UBA5 protein, literature | – | – | – | – | – | – | – | – | – | – | slightly reduced UBA5 thioester conjugation with UFM1 and reduced enzymatic activity in trans-thioesterification of UFC1 | decreases the ability of UBA5 to activate UFM1, to transfer the activated UFM1 to UFC1 and to mediate UFBP1~UFM1 formation
